{"source": "paper doi:10.1101/2020.02.13.946640", "about": "(bioRxiv, 2020)", "molecules": {"B1": {"name": "d subunit of Thermus thermophilus V/A-ATPase (natural protein, UniProt P74902 1-323, looked up)", "chain": "MADDFAYLNARVRVRRGTLLKESFFQEALDLSFADFLRLLSETVYGGELAGQGLPDVDRAVLRTQAKLVGDLPRLVTGEAREAVRLLLLRNDLHNLQALLRAKATGRPFEEVLLLPGTLREEVWRQAYEAQDPAGMAQVLAVPGHPLARALRAVLRETQDLARVEALLAKRFFEDVAKAAKGLDQPALRDYLALEVDAENLRTAFKLQGSGLAPDAFFLKGGRFVDRVRFARLMEGDYAVLDELSGTPFSGLSGVRDLKALERGLRCVLLKEAKKGVQDPLGVGLVLAYVKEREWEAVRLRLLARRAYFGLPRAQVEEEVVCP"}}, "experiment_in_all_cases": "cryo-EM structure", "key": {"[1]": {"biological_target": "c subunit of Thermus thermophilus V/A-ATPase, His3-tagged (Thermus thermophilus) (UniProt Q5SIT7)"}, "[2]": {"biological_target": "c subunit of Thermus thermophilus V/A-ATPase, His3-tagged (Thermus thermophilus) (UniProt Q5SIT7)", "remark": "listed apart in the source"}, "[3]": {"biological_target": "T1, a subunit of Thermus thermophilus V/A-ATPase (Thermus thermophilus, UniProt Q5SIT6 1-652)", "T1 sequence (looked up)": "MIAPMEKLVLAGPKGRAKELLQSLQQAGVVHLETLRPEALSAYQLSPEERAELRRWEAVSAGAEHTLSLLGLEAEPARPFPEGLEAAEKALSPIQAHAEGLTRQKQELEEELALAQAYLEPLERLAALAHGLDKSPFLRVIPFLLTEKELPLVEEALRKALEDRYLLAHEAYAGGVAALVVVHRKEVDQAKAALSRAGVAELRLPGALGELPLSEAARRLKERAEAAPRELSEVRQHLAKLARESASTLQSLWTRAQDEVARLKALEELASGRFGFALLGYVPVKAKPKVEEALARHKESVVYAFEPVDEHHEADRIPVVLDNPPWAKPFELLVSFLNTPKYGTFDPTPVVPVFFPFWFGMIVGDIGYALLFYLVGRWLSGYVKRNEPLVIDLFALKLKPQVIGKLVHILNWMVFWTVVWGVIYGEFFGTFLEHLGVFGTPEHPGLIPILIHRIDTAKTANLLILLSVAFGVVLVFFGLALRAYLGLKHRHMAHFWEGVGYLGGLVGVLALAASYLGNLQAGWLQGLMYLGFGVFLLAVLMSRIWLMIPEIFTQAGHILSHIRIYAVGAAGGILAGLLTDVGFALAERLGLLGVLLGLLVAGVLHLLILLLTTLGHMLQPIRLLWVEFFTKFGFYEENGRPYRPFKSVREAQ"}, "[4]": {"biological_target": "B1"}}, "note": "Like-named read-outs stand apart in the source and are kept apart here."}
{"molecule": "c subunit of Thermus thermophilus V/A-ATPase, His3-tagged (from UniProt Q5SIT7 1-99) (natural protein)", "values": [{"measurement": "stoichiometry N", "setting": "[1]", "value": 12}, {"measurement": "stoichiometry N", "setting": "[2]", "value": 12}]}
{"molecule": "B1", "values": [{"measurement": "binding result", "setting": "[3]", "value": "binds"}]}
{"molecule": "D subunit of Thermus thermophilus V/A-ATPase (natural protein, UniProt O87880 1-223, looked up) MSQVSPTRMNLLQRRGQLRLAQKGVDLLKKKRDALVAEFFGLVREAMEARKALDQAAKEAYAALLLAQAFDGPEVVAGAALGVPPLEGVEAEVENVWGSKVPRLKATFPDGALLSPVGTPAYTLEASRAFRRYAEALIRVANTETRLKKIGEEIKKTTRRVNALEQVVIPGIRAQIRFIQQVLEQREREDTFRLKRIKGKIEAREAEEEGGRPNPQVEIGAGL", "values": [{"measurement": "binding result", "setting": "[4]", "value": "binds"}]}
